This experiment deals with human Replication Factor C (hRFC) with RFC1ΔN555 (human) (UniProt P35251).

Consider “S228I-PCNA (from UniProt P12004 1-261) (natural protein)”, for which the apparent Kd from hRFC ATPase activity as a function of PCNA concentration came to 120 nM.

(Values after paper doi:10.1101/2020.02.18.953257.)
